Assay results as given in publication PMC5633906, “Introducing site-specific cysteines into nanobodies for mercury labelling allows de novo phasing of their crystal structures” (Acta Crystallographica. Section D, Structural Biology, 2017).
Positions count from the first letter of the chain named.

Target: T1, human complement component C5 (Homo sapiens, UniProt P01031)
T1 construct: complement C5 beta chain, human, cut product of the C5 precursor; complement C5 alpha chain, human, cut product of the C5 precursor; also called Human C5; C5 antigen; source: purified as described previously (Laursen et al., 2010; Schatz-Jakobsen et al., 2016)
Assay: BLI; Octet RED; histidine-tagged Nbs immobilised on Anti-Penta-HIS biosensors at 2.5 µg/ml; C5 62.5 to 2000 nM in PBS; association 700 s, dissociation 1800 s; global fit
Conditions: both partners purified

B1: native Nb36 nanobody (VHH)
VHH: QVQLVESGGGLVQAGGSLRLSCVVSGSAVSDYAMGWYRQAPGKQRELVAAIYNSGRTNYVDSVKGRFTISKDNAKKTVYLQMNSLKPEDTADYFCNLLGATTMSNAVWGQGTQVTVSS
notes: Selected by phage display from a llama immunised with human C5; construct in pET-22b(+) with an N-terminal PelB signal for secretion into the periplasm; also called nonmodified Nb36; Nb36-Nat1; source: E. coli LOBSTR, purified (Ni Sepharose, Superdex 75); not shown: 6xHis, C-terminal, kept
  Kd: ~86 nM

B2: PCMB-labelled Nb36-C85 (VHH)
VHH: B1 VHH with S84C
notes: as the VHH of m1 with Ser85Cys (position 82b in the Kabat nomenclature); Construct in pET-22b(+) with an N-terminal PelB signal for secretion into the periplasm; In the crystals the benzoate moiety of PCMB was not seen; also called Nb36 Ser85Cys labelled with PCMB; Hg-labelled Nb36-C85; source: E. coli LOBSTR, purified (Ni Sepharose, Superdex 75), labelled with PCMB; not shown: 6xHis, C-terminal, …
  Kd: ~37 nM
